Experimental data from the nanobody polyreactivity screen of Harvey et al. (2022).

Test: yeast display, Sf9 membrane polyspecificity reagent, FACS + sequencing; frameworks hold sequencing errors
Method in brief: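 Galactose-induced (36–48 hours) yeast carrying a synthetic nanobody display library were exposed to 10% biotinylated, detergent-solubilized Sf9 membrane reagent at 4 °C for 1 hour. FACS followed streptavidin microbead enrichment, using low and high (top ~1%) gates for expression (anti-HA) and reagent binding (streptavidin). Colony PCR, MiSeq 2 × 250 sequencing and CDR-length filtering followed. Labels for polyreactivity reflect the gate of origin.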

Sequence	polyreactivity (PSR sort gate)
QVQLVESGGGLVQAGGSLRLSCAASGLTFTHYALGWYRQAPGKERELVAAIAWRGGSTYYADSVKGRFTISRDNAKNTVYLQMNSLKPEDTAVYYCAVARSYRGEMDYWGQGTQVTVSS	low polyreactivity
QVQLVESGGGLVQAGGSLRLSCAASGSNFSAYMGWYRQAPGKERELVADISSTGTTYYADSVKGRFTISRDNAKNTVYLQMNSLKPEDTAVYYCNADYFLQQEVTFDYWGQGSQVTVSS	high polyreactivity
QVQLIESGGGLVQAGGSLRLSCAASGGTFRAYAMGWYRQAPGKEREFVAAITWSGGRTYYADSVKGRFTISRDNAKNTVYLQMNSLKPEDTEVYYCATDQGHYYHAEHDYWGQGTQVTVSS	low polyreactivity
QVQLVESGGGLVQAGGSLRLSCAASGSIFPYYAMGWYRQAPGKEREFVAAITISGGSTYYADSVKGRFTISRDNAKNTVYLQMNSLKPEDTAVYYCNADKGYVYGDTFYQSGGYYSWGQGTQVTVSS	low polyreactivity
QVQLVESGGGLVQAGGSLRLSCAASGRIFNYNALGWYRQAPGKESELVATITYIGTGTYYADSVKGRFTISRDNAKTTVYLQMNSLKPEDTAVYYCAASYRSRVWWRFDYWGQGTQVTVSS	high polyreactivity
QVQLVESAGGLVQAGASLRLSCAASGYIFFGNAMGWYRQAPGKERELVAAIRWRGTSTYYADSVKGRFTISRDNAKNTVYLQMNSLKPEDSAVYYCAADVVRSNFYGTFLYDYDYWGQGTQVTVSS	low polyreactivity
QVQLVESGGGLVQAGGSLRLSCAASGRTYRYAMGWYRQAPGNERELVAAIRWSGGSTYYADSVKGRFTISRDNAKNTVYIQMNSLKPEDTAVYYCAADSYATRYYYWGQGTQVTVSS	high polyreactivity
QVQLVESGGGLVQAGGSLRLSCAASGSIFGSYAMGWYRQAPGKERELVAAISYSGGTTYYADSVKGRFTISRDNAKNTVYLQMNSLKPEDTAVYYCNAPVAYQREYDYWGLGTQVTVSS	low polyreactivity
QVQLVESAGGLVQAGGSLSLSCAASGRIFYYNTMGWYRQAPGKERELVAAISSTASTTYADSVKGRFTISRDNAKNTVYLQMNILKPEDTAVYYCAADHRYHWAYPRGYYYWGQGTQVTVSS	high polyreactivity
QVQLVESGGGLVQAGGSLRLSCAASGRIFGYYAMGWYRQAPGKERELVAAISYNVVSTNYADSVKGRFTISRDNPKNTVYLQMNSLKPEDTAVYYCAADYGRPYTAFDYWGQGTQVTVSS	low polyreactivity
QVQLEESGGGLVQAGGSLRLSCAASGGIFIFYAMGWYRQAPGKERELVAAISNVSSTNYADSVKGRFTISRDNAKNSVYLQMNSLKPEDTAVYYCNAVGVPSEYYSWGHGTQVTVSS	low polyreactivity
QVQLVESGGGLVQAGGSLRLSCAASGFIFYDYAMGWYRQAPGKERELVAAISSGGSTNYADSVKGRFTISRDNAKNSVYLQMNSLKPEDTAVYYCAADDRSYATWKRDYDYWGQGTQVTVSS	low polyreactivity
QVQLVESGGGLVQAGGSLRLSCAASGIIFAANAMGWYRQAPGKELELVAAISKNGGITYYADSVKGRFTISRDNAKNTVYLQMNSLIPEDPAVYYCAARWRQTRRYYYWGQGSQVTVSS	high polyreactivity
QVQLVESGGGLVQAGGSLRLSCAASGFTFSHYAMGWYRQAPGKERELVAAISWGGGSTYYADSVKGRFTISRDNAKNTVYLQMKSLIPEDTAVYYCARDVVYRGYYYGAFDYCGQGTQVTVSS	low polyreactivity
QVQLVESGGGLVQAGGSLRLSCAASGRIFYRNAMGWYRPAPGKERELVAAISGSGGSTSYADSVKGRFTISRDNAKNTVYLQMNSLKPEDTAVYYCAAYKLYWGQGTQVTVSS	high polyreactivity
QVQLVESGGGVVQAGGSLRLSCAGSGFIFSYYTMGWYRQAPGKERELVAAITSGGSTNYADSVKGRFTISRDNAKNTVYLQMNSLKPEDTAVYYCNALLWAWTLWGSGYDYWGQGTQVTVSS	low polyreactivity
QVQLVESGGGLVQAGGSLRLSCDASGSIFYDNAKGWYRQAPGKERELVATIRGGGNTYYADSVKGRFTISRDNAKNTVYLQMNSLKPEDTAVNYCAKQSDFPVVPLVYGVYGYDYWGQGTQVTVSS	low polyreactivity
QVQLVESGGGLVQAGGSLRLSCAASGLTFKYYAMGWYRQAPGKERELVAAITSTGGRTYYADSVKGRFTISRDNAKNTVYLQMNSLKPEDTAFYYCAAYYVGSSKYDSWGQGTQVTVSS	low polyreactivity
QVQLVESGGGLVQAGGSLRLSCAASGFIFSYYAMGWYRQAPGKERELVAAISGSGGSTYYADSVKGRFTISRDNAKNTVYLQMNSLKPEDTAVYYCAAVSSYSRVYYWGQGTQVTVSS	high polyreactivity
QVQLVESGGGLVQAGGSLRLSCAASGYIFKRYAMGWYRQAPGKERELVAAISSRGGSTYYADSVKGRFTISRDNAKNTVYLQMNSLKPEDTAVYYCAAVSWFRNYYWGQGTQVTVSS	high polyreactivity
QVQLVESGGGLVQAGGSLRLSCAASGFTFYANAMGWYRQAPGKERELVAAITSSGGSTYYADSVKGRFTISRDNAKNTVYLQMNSLKPEDSAVYYCNSLRLYSIPRLYGYWGQGTQVTVSS	high polyreactivity
QVQLVESGGGLVQAGGSLRLSCAASGSTFYYNAMVWYRQAPGKEREFVASISWRGGRTYYADSVKGRFTISRDNAKNTVYLQMNSLKQEDTAVYYCAKGYLALGQPDDYWGQGTQVTVSS	high polyreactivity

Sequence	polyreactivity (PSR sort gate)
QVQLVESGGGLVQAGGSLRLSCAASGYIFPTNAMGWYRQAPGKERELVAVITSGGSTYYADSVKGRFTISRDNAKNTVYLQMNSLKPEDNAVYYCAARYPGRYGIYRVLYGYWGQGTQVTVSS	high polyreactivity
QVQLVESGGGLGQAGGSLRLSCAASGFTFVYYAMGWYRPAPGKERELVAAISSRGGSTNYADSVKGRFTISRDNAKNTVYLQMNSLKPEDTAVYYCATYFSIQRRGDYWGQGTQVTVSS	high polyreactivity
QVQLVESGGGLVQAGGSLRLSCAASGSTFYLYTMGWYIQAPGKERELVAAISPSGGSTRYADSVKGRFTISRDNAKNTVYLQMNSLKPEDTAVYYCAARSTVYPRPHERDYWGQGTQVTVSS	high polyreactivity
QVQLVESGGGLVQAGGSLRLSCAASGSTYRNAMGWYRQAPGKERELVAAITKSDSSTYYADSVKGRFTISRDNAKNTVYLQMYSLKPEDTAVYYCNVDRAWPPWPYDYWGQGTQVTVSS	low polyreactivity
QVQLVESGGGLDQAGGSLRLSCAASGSTFYAYAMGWYRQAPGKERELVAANSSDGTNYADSVKGRFTLSRDNAKNTVYLQMNSLKPEDTAVYYCAKDSVWGAKNLTSYKYYYWGQGTQVTVSS	low polyreactivity
QVQLVESGGGLVQAGGSRLSCAASGLIFIWYTMGWYRQAPGKERELVAAIDSSGGNTYYADSVKGRFTISRDNAKNPVYLQMNSLKPAETAVYYCATDVGHGAGNLMGYWGQGTQVTVSS	low polyreactivity
QVQLVESGGGLVQAGGSLRLSCAASGSIIVRYAMGWYRQAPGKERELVAAISWSGGRTYYADSVKGRFTISRDNAKNTVYLQMNSLKPEDTAVYYCAKRQGGRKYVRYEYDSWGQGTQVTVSS	low polyreactivity
QGQLVESGGGLVQAGGSLRLSCAASGSTFLHYAMGWYRQAPGKERELVAAISRRGGRTYYADSVKGRFTISRDNAKNTVYLQMNRLKPEDTAVYNCAVDGIRDGYWIFYYWGQGTQVTVSS	low polyreactivity
QVQLVESGGGLVQAGGSLRLSCAASGRIFWAYAMGWYRQAPGKERELVAGITFTGGRTYYADSVKGRFTISRDNAKNTVYLQMNSLKPEDTAVYYCAAAGLDVGRKDRDGYWGQGTQVTVSS	low polyreactivity
QVQLVDSGGGLVQAGGSLRLSCAASGSTFYWYPMGWYRQAPGKERELVAAISRSSGSTYYADSVKGRFTISRDNAKNTVYLQMNSLTPEDTAVYYCAADYYLRSFVWTAYDSWGHGTQVTVSS	high polyreactivity
QVQLVESGGGLVQAGGSLRLSCAASGFTFYSYAMGWYRQAPGKERELVAAISRSGGSTRYADSVKGRFTISRDNAKNTVYLQMNSLKPEDTAVYYCNAGKYRAYDYWGQGTQVTVSS	high polyreactivity
QVQLVESGGGLVQAGGSLRLSCAASGSTFPVYAMGWYRQAPGKERELVATISYSGGSTNYADSVKGRFTISRDNAKNTVYLQMNSLIPEDTAVYYCAARKVNRGSGGYDSWGQGTQVTVSS	high polyreactivity
QVQLVESGGGLVQAGGSLRLSCAASGFIFAYYAMGLYRQAPGKERELVAAITSDGSTYYADSVKGRFTISRDNAKNTVYLQMNSLKPEDTAVYYCNTYWVLRPGYNYWGQGTQVTVSS	high polyreactivity
QVQLVESGGGLVQAGGSLRLSCAASGSIFWRNAMGWYRQAPGKERELVAAISRVGSTNYADSVKGRFTISRDNAKNTVYLQMNSLKPEDTAVYYCAADGTVVRDFDYWGQGTQVTVSS	low polyreactivity
QVQIVESGGGLVQAGGSLRLSCAASGRTFGVYAMGWYRQAPAKESTYYADSVKGRFTISRDNAKNTVYLQMNSLKPEDTAVYYCNARGGFGYITMDYWGQGTQVTVSS	low polyreactivity
QVQLVESGGGLVQAGASLRLSCAASGIILSVYAMGWYRQAPGKERELVAAITTVGNTYYADSVKGRFTISRDNAKNTVYLEMNCLKPEDTAVYYCAAKRWTTYKYNYWGQGTQVTVSS	high polyreactivity
QVQLVESGGGLVKAGGSLRLSCAASGRIIEKYAMGWYRQAHGKEREFVAAIDWSGGSTYYADSVKGRFTISRDNAKNTVSLQKNSLKPEDTAVYYCAAYWYYEDGQSEARLYGYDYWGQGTQVTVSS	low polyreactivity
QVQLVESGGGLVQAGGSLRLSCAASGRPFPGNAMGWYRPAPGKERELVAAISSSGGSTHYADSGKGRFTISRDTAKNTVYLQMNSLKPEDTAVYYCNARSIGYSYRYYDWGQGTQVTVSS	high polyreactivity
QVQLVESGGGLVQAGGSLRLSCAASGSTFLGYTMGWYRQAPGKERELVASITNSGSTDYADSVKGRFTISRDNAKNTVYLHMNSLKPEDTAVYYCAAQFYRYPSKNDYWGQGTQVTVSS	high polyreactivity
QVQLVESGGGLVQAGGSLRLSCAASGFTFSRYAMGWYRQAPGKERELVAAISRSGGRTSYADSVKGRFTISRDNSKNTVFLQMNSLKPEDTAVYYCAARTATGSSSSIGYGYWGQGTQVTVSS	high polyreactivity
QVQLVESGGGLVQAGGSLRLSCAASGSIIGIYAMGWYRQAPGKEREMVAAINRGGSTYYADSVKGRFTISRDNAKNTVYLQMNSLKPEDTAVYYCSASPPYNTEFDYWGQGTQVTVSS	low polyreactivity
